Source: article PMC3760798, “Analysis of the RelA:CBP/p300 Interaction Reveals Its Involvement in NF-κB-Driven Transcription” (PLoS Biology, 2013)
Positions count from the first letter of the chain named. Numbers in names are those of the source.

B1: GB1-tagged RelA–TA2 fragment 425–508 wt (domain or fragment, mouse, UniProt Q04207 425-508, looked up)
chain: KSTQAGEGTLSEALLHLQFDADEDLGALLGNSTDPGVFTDLASVDNSEFQQLLNQGVSMSHSTAEPMLMEYPEAITRLVTGSQR
notes: GB1 is the 58-residue B1 domain of streptococcal protein G, kept for concentration determination; also called RelA–TA2 fragment of Lys425–Arg508; source: expressed as His6-GB1 fusion, purified; His6-tag cleaved by TEV protease; not shown: His6, N-terminal, cleaved; GB1, N-terminal, kept
B2: GB1-tagged RelA–TA2 fragment 425–508 (L465A) (domain or fragment, mouse, UniProt Q04207 425-508, looked up)
chain: B1 chain with L41A
notes: also called Leu465Ala; source: expressed as His6-GB1 fusion, purified; His6-tag cleaved by TEV protease; not shown: His6, N-terminal, cleaved; GB1, N-terminal, kept
B3: GB1-tagged RelA–TA2 fragment 425–508 (S467D) (domain or fragment, mouse, UniProt Q04207 425-508, looked up)
chain: B1 chain with S43D
notes: also called RelA(Ser467Asp); phosphomimetic mutant; source: expressed as His6-GB1 fusion, purified; His6-tag cleaved by TEV protease; not shown: His6, N-terminal, cleaved; GB1, N-terminal, kept
B4: GB1-tagged RelA–TA2 fragment 425–508 (L449A) (domain or fragment, mouse, UniProt Q04207 425-508, looked up)
chain: B1 chain with L25A
notes: also called Leu449Ala; source: expressed as His6-GB1 fusion, purified; His6-tag cleaved by TEV protease; not shown: His6, N-terminal, cleaved; GB1, N-terminal, kept
B5: TAZ1 domain of mouse CBP (residues 340–439) (domain or fragment)
chain: not shown
notes: Isotopically labelled in some NMR samples; also called CBP–TAZ1; CH1; source: purified
B6: GB1-tagged RelA fragment 441–508 wt (domain or fragment, mouse, UniProt Q04207 441-508, looked up)
chain: LQFDADEDLGALLGNSTDPGVFTDLASVDNSEFQQLLNQGVSMSHSTAEPMLMEYPEAITRLVTGSQR
notes: RelA (p65), mouse, residues 441-508; also called N-terminal truncation to remove residues Lys425–His440; source: expressed as His6-GB1 fusion, purified; His6-tag cleaved by TEV protease; not shown: His6, N-terminal, cleaved; GB1, N-terminal, kept
B7: GST-RelA fragment (Lys425–Pro490) Met483Ala (domain or fragment, mouse, UniProt Q04207 425-490, looked up)
chain: KSTQAGEGTLSEALLHLQFDADEDLGALLGNSTDPGVFTDLASVDNSEFQQLLNQGVSASHSTAEP
notes: also called RelA–TA2 M483A (GST); source: E. coli BL21(DE3), purified (glutathione sepharose); not shown: GST, N-terminal, kept
B8: GST-RelA fragment (Lys425–Pro490), wild type (domain or fragment, mouse, UniProt Q04207 425-490, looked up)
chain: B7 chain with A59M
notes: also called GST-RelA–TA2; construct T11; source: E. coli BL21(DE3), purified (glutathione sepharose); not shown: GST, N-terminal, kept
B9: RelA–TA2 (residues 425–490), tag cleaved (domain or fragment, mouse, UniProt Q04207 425-490, looked up)
chain: B7 chain with A59M
notes: 15N/13C labelled for NMR; source: expressed as His6-GB1 fusion, purified (Ni-NTA under denaturing conditions, thrombin cleavage, reverse-phase HPLC); not shown: His6, N-terminal, cleaved; GB1, N-terminal, cleaved

Tests used:
Details in all cases: both partners purified
[1] = target: B5; assay: ITC; TAZ1 (169 to 185 µM) in the syringe, GB1-tagged RelA–TA2 peptide (10 to 18 µM) in the cell; 25°C; 20 mM Tris pH 8.0, 50 mM NaCl, 1 mM DTT; single-binding site model
[2] = target: B5; assay: ITC; TAZ1 (169 to 185 µM) in the syringe, GB1-tagged RelA–TA2 peptide (10 to 18 µM) in the cell; 25°C; 20 mM Tris pH 8.0, 150 mM NaCl, 1 mM DTT; single-binding site model
[3] = target: B1; assay: ITC; TAZ1 (169 to 185 µM) in the syringe, GB1-tagged RelA–TA2 peptide (10 to 18 µM) in the cell; 25°C; 20 mM Tris pH 8.0, 50 mM NaCl, 1 mM DTT; single-binding site model
[4] = target: B3; assay: as above
[5] = target: B1; assay: ITC; TAZ1 (169 to 185 µM) in the syringe, GB1-tagged RelA–TA2 peptide (10 to 18 µM) in the cell; 25°C; 20 mM Tris pH 8.0, 150 mM NaCl, 1 mM DTT; single-binding site model
[6] = target: B3; assay: as above
[7] = target: B4; assay: as above
[8] = target: B2; assay: as above
[9] = target: B6; assay: as above
[10] = target: B5; assay: pull-down; GST-RelA fragments (20 µg) on glutathione sepharose beads with purified TAZ1 (10 µg); 20 mM Tris pH 7.5, 150 mM NaCl, 0.5 mM DTT; 4°C, 30 min; washes with 0.3% TritonX-100; SDS-PAGE
[11] = target: B5; assay: NMR structure; solution structure of the complex; refolded TAZ1 and RelA fragment mixed; 25°C, 20 mM Tris pH 6.5, 40 mM NaCl, 2 mM DTT; 0.7–1.2 mM protein

Binder: B1
- Kd [1]: 57 nM
- Kd [2]: 244 nM

Binder: B2
- Kd [2]: 1710 nM

Binder: B3
- Kd [1]: 41.2 nM
- Kd [2]: 174 nM

Binder: B4
- Kd [2]: 1600 nM

Binder: B5
- dH [3]: -5.9 kcal/mol
- dH [4]: -6.5 kcal/mol
- dH [5]: -7.2 kcal/mol
- dH [6]: -7.8 kcal/mol
- dH [7]: -5.4 kcal/mol
- dH [8]: -2.4 kcal/mol
- dH [9]: -8.3 kcal/mol

Binder: B6
- Kd [2]: 387 nM

Binder: B7
- binding result [10]: binds

Binder: B8
- binding result [10]: binds

Binder: B9
- binding result [11]: binds
